Assay results reported in patent US20220062373A1.

Target: Endogenous murine CD206 on M2-polarized bone marrow-derived macrophages (mouse) (UniProt Q61830)
Experiment: LC-MS/MS proteomics of CD206 complexes pulled down with biotinylated RP-182 from M2 BMDMs

Chain of Endogenous murine CD206 on M2-polarized bone marrow-derived macrophages (mouse) (Q61830 20-1456): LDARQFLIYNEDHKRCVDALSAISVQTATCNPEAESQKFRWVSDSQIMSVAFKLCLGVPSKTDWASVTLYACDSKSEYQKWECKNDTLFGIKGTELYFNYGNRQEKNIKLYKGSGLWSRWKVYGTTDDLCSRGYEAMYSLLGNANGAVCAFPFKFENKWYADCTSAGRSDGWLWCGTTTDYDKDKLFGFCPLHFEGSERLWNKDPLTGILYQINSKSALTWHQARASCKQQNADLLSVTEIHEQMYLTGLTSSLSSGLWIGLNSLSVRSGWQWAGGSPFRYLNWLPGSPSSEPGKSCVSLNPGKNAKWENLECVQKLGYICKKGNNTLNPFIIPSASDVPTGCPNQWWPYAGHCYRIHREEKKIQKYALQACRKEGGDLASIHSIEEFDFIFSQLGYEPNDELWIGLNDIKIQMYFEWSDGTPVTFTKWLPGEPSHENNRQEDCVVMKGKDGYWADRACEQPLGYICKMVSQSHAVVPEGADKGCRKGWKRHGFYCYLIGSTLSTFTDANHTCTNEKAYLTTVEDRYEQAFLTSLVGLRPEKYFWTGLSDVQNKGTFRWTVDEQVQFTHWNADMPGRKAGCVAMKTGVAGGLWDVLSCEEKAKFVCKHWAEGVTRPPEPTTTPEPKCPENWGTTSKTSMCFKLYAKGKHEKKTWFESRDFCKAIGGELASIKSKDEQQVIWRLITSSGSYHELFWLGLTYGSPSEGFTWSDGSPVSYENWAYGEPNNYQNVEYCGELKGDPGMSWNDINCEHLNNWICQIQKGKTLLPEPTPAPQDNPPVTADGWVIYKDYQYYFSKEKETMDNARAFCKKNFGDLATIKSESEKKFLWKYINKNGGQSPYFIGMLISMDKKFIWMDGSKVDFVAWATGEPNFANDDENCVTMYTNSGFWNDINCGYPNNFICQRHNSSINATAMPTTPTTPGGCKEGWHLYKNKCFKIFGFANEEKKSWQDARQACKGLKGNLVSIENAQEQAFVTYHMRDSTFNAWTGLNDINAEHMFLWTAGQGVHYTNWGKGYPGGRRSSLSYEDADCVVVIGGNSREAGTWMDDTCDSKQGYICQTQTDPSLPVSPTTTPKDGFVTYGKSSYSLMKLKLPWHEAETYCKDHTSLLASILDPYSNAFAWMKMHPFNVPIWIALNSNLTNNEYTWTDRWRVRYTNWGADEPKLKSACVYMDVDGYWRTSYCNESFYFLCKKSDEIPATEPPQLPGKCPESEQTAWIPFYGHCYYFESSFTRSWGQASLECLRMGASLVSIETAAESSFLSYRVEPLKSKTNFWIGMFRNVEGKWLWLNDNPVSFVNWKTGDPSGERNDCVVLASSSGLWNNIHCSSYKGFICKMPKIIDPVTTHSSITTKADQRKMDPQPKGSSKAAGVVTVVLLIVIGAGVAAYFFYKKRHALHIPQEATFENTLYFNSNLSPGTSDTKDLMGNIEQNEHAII

Question: With “IQ motif containing GTPase activating protein 1 (IQGAP1) (from UniProt Q9JKF1 2-1657)” as the substance, how does the fold enriched in CD206 complexes against control read?
Answer: The fold enriched in CD206 complexes against control was 9 fold.

Question: “IQ motif containing GTPase activating protein 2 (IQGAP2) (from UniProt Q3UQ44 1-1575)” was tested. Which fold enriched in CD206 complexes against control did it give?
Answer: The fold enriched in CD206 complexes against control was 76 fold.
